Measurements reported in article PMC9352680, “A comprehensive thermodynamic model for RNA binding by the Saccharomyces cerevisiae Pumilio protein PUF4”.
Residue numbers refer to the chain shown, from its start. Numbers in names are those of the source.

T1: PUF4 RNA-binding domain (Saccharomyces cerevisiae, UniProt P25339 537-888)
T1 sequence: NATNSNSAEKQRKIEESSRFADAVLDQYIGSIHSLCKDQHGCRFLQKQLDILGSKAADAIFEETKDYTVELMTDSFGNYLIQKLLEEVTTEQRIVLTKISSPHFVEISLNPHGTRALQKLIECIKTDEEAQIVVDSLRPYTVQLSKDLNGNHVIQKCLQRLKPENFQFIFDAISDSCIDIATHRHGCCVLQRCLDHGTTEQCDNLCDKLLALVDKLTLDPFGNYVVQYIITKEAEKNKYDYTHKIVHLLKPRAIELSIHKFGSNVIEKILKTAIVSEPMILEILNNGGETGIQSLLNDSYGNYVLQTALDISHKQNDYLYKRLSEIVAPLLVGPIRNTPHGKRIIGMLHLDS

B1: Ia_S2_P5E.1_K5.1_C5.1_H5.1_A5.1_F5.1_[A10C]_T5.1 (ssRNA)
RNA: UUUGAUUAAUAUGAUAUCGUUCUUUCUUGUAUUAUUCUUCUUUCUCGAUAUCAUAUUAAUCUUU
B2: Ib_S2_P5E.1_K5.1_C5.1_H5.1_[T1G]_[G2C]_A5.1_F5.1_T5.1 (ssRNA)
RNA: B1 RNA with U28G, G29C, C37A
B3: Ib_S2_P5E.1_K5.1_C5.1_H5.1_[G2C]_[A4C]_A5.1_F5.1_T5.1 (ssRNA)
RNA: B1 RNA with G29C, A31C, C37A
B4: Ib_S2_P5E.1_K5.1_C5.1_H5.1_[A4C]_A5.1_[T5C]_F5.1_T5.1 (ssRNA)
RNA: B1 RNA with A31C, U32C, C37A
B5: Ib_S2_P5E.1_K5.1_C5.1_H5.1_[A4C]_A5.1_[A7C]_F5.1_T5.1 (ssRNA)
RNA: B1 RNA with A31C, A34C, C37A
B6: Ib_S2_P5E.1_K5.1_C5.1_H5.1_[T3C]_A5.1_[T5G]_F5.1_T5.1 (ssRNA)
RNA: B1 RNA with U30C, U32G, C37A
B7: Ib_S2_P5E.1_K5.1_C5.1_H5.1_[T1A]_[G2C]_A5.1_F5.1_T5.1 (ssRNA)
RNA: B1 RNA with U28A, G29C, C37A
B8: Ib_S2_P5E.1_K5.1_C5.1_H5.1_A5.1_[T5G]_[A7C]_F5.1_T5.1 (ssRNA)
RNA: B1 RNA with U32G, A34C, C37A
B9: Ib_S2_P5E.1_K5.1_C5.1_H5.1_[G2T]_A5.1_[T6C]_F5.1_T5.1 (ssRNA)
RNA: B1 RNA with G29U, U33C, C37A
B10: Ib_S2_P5E.1_K5.1_C5.1_H5.1_[A4G]_A5.1_[T6A]_F5.1_T5.1 (ssRNA)
RNA: B1 RNA with A31G, U33A, C37A
B11: Ib_S2_P5E.1_K5.1_C5.1_H5.1_[T3C]_A5.1_[T5C]_F5.1_T5.1 (ssRNA)
RNA: B1 RNA with U30C, U32C, C37A
B12: Ib_S2_P5E.1_K5.1_C5.1_H5.1_[A4G]_A5.1_[A7T]_F5.1_T5.1 (ssRNA)
RNA: B1 RNA with A31G, A34U, C37A
B13: Ib_S2_P5E.1_K5.1_C5.1_H5.1_[T1C]_A5.1_[T5C]_F5.1_T5.1 (ssRNA)
RNA: B1 RNA with U28C, U32C, C37A
B14: Ib_S2_P5E.1_K5.1_C5.1_H5.1_[A4T]_A5.1_[T6A]_F5.1_T5.1 (ssRNA)
RNA: B1 RNA with A31U, U33A, C37A
B15: Ib_S2_P5E.1_K5.1_C5.1_H5.1_[T1A]_A5.1_[T5C]_F5.1_T5.1 (ssRNA)
RNA: B1 RNA with U28A, U32C, C37A
B16: Ia_S2_P5E.1_K5.1_C5.1_H5.1_A5.1_F5.1_[A10T]_T5.1 (ssRNA)
RNA: B1 RNA with C37U
B17: Ib_S2_P5E.1_K5.1_C5.1_H5.1_[G2A]_A5.1_[T6C]_F5.1_T5.1 (ssRNA)
RNA: B1 RNA with G29A, U33C, C37A
B18: Ib_S2_P5E.1_K5.1_C5.1_H5.1_[T1C]_[A4T]_A5.1_F5.1_T5.1 (ssRNA)
RNA: B1 RNA with U28C, A31U, C37A
B19: Ib_S2_P5E.1_K5.1_C5.1_H5.1_[T3C]_[A4C]_A5.1_F5.1_T5.1 (ssRNA)
RNA: B1 RNA with U30C, A31C, C37A
B20: Ib_S2_P5E.1_K5.1_C5.1_H5.1_[T1C]_[T3C]_A5.1_F5.1_T5.1 (ssRNA)
RNA: B1 RNA with U28C, U30C, C37A
B21: Ib_S2_P5E.1_K5.1_C5.1_H5.1_[A4C]_A5.1_[A7T]_F5.1_T5.1 (ssRNA)
RNA: B1 RNA with A31C, A34U, C37A
B22: Ib_S2_P5E.1_K5.1_C5.1_H5.1_[T3C]_A5.1_[A7T]_F5.1_T5.1 (ssRNA)
RNA: B1 RNA with U30C, A34U, C37A
B23: Ib_S2_P5E.1_K5.1_C5.1_H5.1_[A4T]_A5.1_[T5G]_F5.1_T5.1 (ssRNA)
RNA: B1 RNA with A31U, U32G, C37A
B24: Ia_S2_P5E.1_K5.1_C5.1_H5.1_[T1A]_A5.1_F5.1_T5.1 (ssRNA)
RNA: B1 RNA with U28A, C37A
B25: Ib_S2_P5E.1_K5.1_C5.1_H5.1_[T1A]_[G2T]_A5.1_F5.1_T5.1 (ssRNA)
RNA: B1 RNA with U28A, G29U, C37A
B26: Ib_S2_P5E.1_K5.1_C5.1_H5.1_[G2T]_A5.1_[A7G]_F5.1_T5.1 (ssRNA)
RNA: B1 RNA with G29U, A34G, C37A
B27: Ib_S2_P5E.1_K5.1_C5.1_H5.1_[T1A]_A5.1_[T6C]_F5.1_T5.1 (ssRNA)
RNA: B1 RNA with U28A, U33C, C37A
B28: Ib_S2_P5E.1_K5.1_C5.1_H5.1_[T3C]_[A4T]_A5.1_F5.1_T5.1 (ssRNA)
RNA: B1 RNA with U30C, A31U, C37A
B29: Ib_S2_P5E.1_K5.1_C5.1_H5.1_[G2A]_A5.1_[T5G]_F5.1_T5.1 (ssRNA)
RNA: B1 RNA with G29A, U32G, C37A
B30: Ib_S2_P5E.1_K5.1_C5.1_H5.1_[G2T]_A5.1_[T6A]_F5.1_T5.1 (ssRNA)
RNA: B1 RNA with G29U, U33A, C37A
B31: Ib_S2_P5E.1_K5.1_C5.1_H5.1_[A4G]_A5.1_[T5C]_F5.1_T5.1 (ssRNA)
RNA: B1 RNA with A31G, U32C, C37A
B32: Ib_S2_P5E.1_K5.1_C5.1_H5.1_[G2C]_A5.1_[T6A]_F5.1_T5.1 (ssRNA)
RNA: B1 RNA with G29C, U33A, C37A
B33: Ib_S2_P5E.1_K5.1_C5.1_H5.1_[T3C]_A5.1_[A7G]_F5.1_T5.1 (ssRNA)
RNA: B1 RNA with U30C, A34G, C37A
B34: Ic_S2_P5E.1_K5.1_C5.1_H5.1_A5.1_[A7T]_F5.1_[A10T]_T5.1 (ssRNA)
RNA: B1 RNA with A34U, C37U
B35: Ib_S2_P5E.1_K5.1_C5.1_H5.1_[G2T]_A5.1_[T5C]_F5.1_T5.1 (ssRNA)
RNA: B1 RNA with G29U, U32C, C37A
B36: Ib_S2_P5E.1_K5.1_C5.1_H5.1_[A4C]_A5.1_[T5A]_F5.1_T5.1 (ssRNA)
RNA: B1 RNA with A31C, U32A, C37A
B37: Ib_S2_P5E.1_K5.1_C5.1_H5.1_[A4C]_A5.1_[T5G]_F5.1_T5.1 (ssRNA)
RNA: B1 RNA with A31C, U32G, C37A
B38: Ib_S2_P5E.1_K5.1_C5.1_H5.1_A5.1_[T5G]_[A7G]_F5.1_T5.1 (ssRNA)
RNA: B1 RNA with U32G, A34G, C37A
B39: Ib_S2_P5E.1_K5.1_C5.1_H5.1_[T3G]_[A4T]_A5.1_F5.1_T5.1 (ssRNA)
RNA: B1 RNA with U30G, A31U, C37A
B40: Ib_S2_P5E.1_K5.1_C5.1_H5.1_[A4T]_A5.1_[T6C]_F5.1_T5.1 (ssRNA)
RNA: B1 RNA with A31U, U33C, C37A
B41: Ib_S2_P5E.1_K5.1_C5.1_H5.1_[A4C]_A5.1_[T6A]_F5.1_T5.1 (ssRNA)
RNA: B1 RNA with A31C, U33A, C37A
B42: Ib_S2_P5E.1_K5.1_C5.1_H5.1_[T1A]_A5.1_[A7G]_F5.1_T5.1 (ssRNA)
RNA: B1 RNA with U28A, A34G, C37A
B43: Ib_S2_P5E.1_K5.1_C5.1_H5.1_[G2C]_[A4G]_A5.1_F5.1_T5.1 (ssRNA)
RNA: B1 RNA with G29C, A31G, C37A
B44: Ib_S2_P5E.1_K5.1_C5.1_H5.1_[A4T]_A5.1_[T5C]_F5.1_T5.1 (ssRNA)
RNA: B1 RNA with A31U, U32C, C37A
B45: Ib_S2_P5E.1_K5.1_C5.1_H5.1_[G2T]_[A4T]_A5.1_F5.1_T5.1 (ssRNA)
RNA: B1 RNA with G29U, A31U, C37A
B46: Ib_S2_P5E.1_K5.1_C5.1_H5.1_[T3G]_[A4C]_A5.1_F5.1_T5.1 (ssRNA)
RNA: B1 RNA with U30G, A31C, C37A
B47: Ib_S2_P5E.1_K5.1_C5.1_H5.1_A5.1_[T5C]_[T6A]_F5.1_T5.1 (ssRNA)
RNA: B1 RNA with U32C, U33A, C37A
B48: Ib_S2_P5E.1_K5.1_C5.1_H5.1_[G2C]_A5.1_[T5A]_F5.1_T5.1 (ssRNA)
RNA: B1 RNA with G29C, U32A, C37A
B49: Ib_S2_P5E.1_K5.1_C5.1_H5.1_[T3C]_A5.1_[T6C]_F5.1_T5.1 (ssRNA)
RNA: B1 RNA with U30C, U33C, C37A
B50: Ia_S2_P5E.1_K5.1_C5.1_H5.1_[G2C]_A5.1_F5.1_T5.1 (ssRNA)
RNA: B1 RNA with G29C, C37A
B51: Ib_S2_P5E.1_K5.1_C5.1_H5.1_[A4G]_A5.1_[T6C]_F5.1_T5.1 (ssRNA)
RNA: B1 RNA with A31G, U33C, C37A
B52: Ib_S2_P5E.1_K5.1_C5.1_H5.1_[G2A]_[A4C]_A5.1_F5.1_T5.1 (ssRNA)
RNA: B1 RNA with G29A, A31C, C37A
B53: Ia_S2_P5E.1_K5.1_C5.1_H5.1_[T1C]_A5.1_F5.1_T5.1 (ssRNA)
RNA: B1 RNA with U28C, C37A
B54: Ib_S2_P5E.1_K5.1_C5.1_H5.1_[T1G]_[G2T]_A5.1_F5.1_T5.1 (ssRNA)
RNA: B1 RNA with U28G, G29U, C37A

Target: T1, PUF4 RNA-binding domain
Test: Mg; RNA-MaP; 20 mM Na-HEPES pH 7.4, 30 mM KOAc, 0.75 mM MgCl2, 0.1% Tween-20, 5% glycerol, 0.1 mg/mL BSA, 2 mM DTT; 25 C; 0.0125-409.6 nM protein
Details: tags: N-His6-TEV cleaved; C-SNAP kept, Cy3B-labelled; label: tethered on chip by stalled RNA polymerase

Binder	Kd [nM]
B1	12.7
B2	1120
B3	> 2300
B4	22.6
B5	94.3
B6	909
B7	1400
B8	9.58
B9	2030
B10	11.9
B11	276
B12	10.3
B13	331
B14	28.9
B15	> 2300
B16	7.7
B17	353
B18	836
B19	1540
B20	> 2300
B21	24.4
B22	676
B23	6.64
B24	> 2300
B25	1610
B26	> 2300
B27	1680

Binder	Kd [nM]
B28	930
B29	1490
B30	1970
B31	9.3
B32	> 2300
B33	1600
B34	18.3
B35	> 2300
B36	5.71
B37	40
B38	9.14
B39	965
B40	8.06
B41	28.1
B42	> 2300
B43	522
B44	11
B45	> 2300
B46	1020
B47	1.95
B48	870
B49	531
B50	2160
B51	8.03
B52	810
B53	258
B54	39.1
